Laboratory results from publication PMC4854314, “RNA protects a nucleoprotein complex against radiation damage” (Acta Crystallographica. Section D, Structural Biology, 2016).

Target: the molecule itself
Experiment: crystal structure; TRAP-RNA crystals, hanging drop, 2:1 molar ratio of TRAP to RNA, 70 mM potassium phosphate pH 7.8, 10 mM L-tryptophan; data collected at 100 K, 1.98 Å; asymmetric unit holds one RNA-bound and one non-RNA-bound TRAP ring

B1: trp RNA-binding attenuation protein (TRAP) from B. stearothermophilus (natural protein)
chain: MYTNSDFVVIKALEDGVNVIGLTRGADTRFHHSEKLDKGEVLIAQFTEHTSAIKVRGKAYIQTRHGVIESEGKK
notes: construct as in Hopcroft et al., 2002 (PDB 1gtf); 11 identical subunits form a ring; also called TRAP ring; source: overexpressed in Escherichia coli and purified; copies: 11
B1 was tested, and the “stoichiometry N” value was 11.
